Assay results from article doi:10.1101/2023.03.09.531992 (bioRxiv, 2023).

T1: S. pombe αWD40 domain (N-terminal WD40 domain of α-COPI), wild type (S. pombe, UniProt Q96WV5 1-327)
T1 sequence: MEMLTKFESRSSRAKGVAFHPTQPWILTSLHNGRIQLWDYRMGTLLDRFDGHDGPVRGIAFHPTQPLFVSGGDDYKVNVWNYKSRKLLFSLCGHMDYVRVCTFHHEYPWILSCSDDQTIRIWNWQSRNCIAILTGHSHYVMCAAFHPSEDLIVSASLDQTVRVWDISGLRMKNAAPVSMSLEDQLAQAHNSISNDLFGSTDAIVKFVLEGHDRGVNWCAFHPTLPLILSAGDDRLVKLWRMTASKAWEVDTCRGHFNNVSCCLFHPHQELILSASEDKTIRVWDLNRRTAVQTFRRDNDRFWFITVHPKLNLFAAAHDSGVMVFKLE

T2: S. cerevisiae β’WD40 domain (N-terminal WD40 domain of β’-COPI), wild type (S. cerevisiae, UniProt P41811 1-300)
T2 sequence: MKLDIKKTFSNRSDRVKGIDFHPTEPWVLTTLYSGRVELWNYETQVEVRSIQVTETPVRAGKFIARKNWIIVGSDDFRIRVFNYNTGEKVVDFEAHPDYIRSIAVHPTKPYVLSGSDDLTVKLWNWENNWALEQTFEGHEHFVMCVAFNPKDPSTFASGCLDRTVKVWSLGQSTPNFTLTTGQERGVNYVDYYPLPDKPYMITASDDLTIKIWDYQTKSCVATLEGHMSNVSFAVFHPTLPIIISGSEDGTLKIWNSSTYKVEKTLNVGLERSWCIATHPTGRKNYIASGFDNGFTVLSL

B1: 15N-labeled wild-type SARS-CoV-2 S C-terminal tail 21-mer peptide (NMR) (peptide)
peptide: not shown
modifications: 15N isotope label
B2: wild-type SARS-CoV-2 S tail heptapeptide (residues 1267-1273), as co-crystallised (peptide)
peptide: GVKLHYT

Assays:
[1] = target: T1, S. pombe αWD40 domain (N-terminal WD40 …); assay: NMR titration
[2] = target: T2, S. cerevisiae β’WD40 domain (N-terminal …); assay: crystal structure

Binder	binding result [1]	binding result [2]
B1	binds	
B2		binds
